Results taken from patent US8440629B2.

Legend:
LRP6 CR1-3 (human) = LRP6 CR1-3 (human) (UniProt O75581); test: solid-phase binding assay, immobilised CR protein, anti-RAP detection
LRP6 CR12 (human) = LRP6 CR12 (human) (UniProt O75581); test: as above
LRP6 CR23 (human) = LRP6 CR23 (human) (UniProt O75581); test: as above
VLDLR CR6-8 (human) = VLDLR CR6-8 (human) (UniProt P98155); test: as above
VLDLR CR78 (human) = VLDLR CR78 (human) (UniProt P98155); test: as above
[1] = biological target: recombinant mouse VLDLR ectodomain (mouse) (UniProt P98156); test: solid-phase binding assay, immobilised receptor, streptavidin-HRP detection, EDTA-corrected
[2] = biological target: full-length LRP1 expressed on CHO-K1 cells

## RAP d3 (ligand)
LRP6 CR1-3 (human)
  binding as percent of that for LRP1 CR3-5: < 5%
LRP6 CR12 (human)
  binding as percent of that for LRP1 CR3-5: < 5%
LRP6 CR23 (human)
  binding as percent of that for LRP1 CR3-5: < 5%
VLDLR CR6-8 (human)
  Kd: > 300 nM
VLDLR CR78 (human)
  binding as percent of that for LRP1 CR3-5: < 5%

## tag-free RAP d3 peptide linked to maleimide-PEO2-biotin (ligand)
[1]
  Kd: 1 nM

## mRAPc combined with streptavidin-saporin conjugate
[2]
  viable cell number (MTT assay, 48 hours): 40%
